Reference: patent publication US20130174288A1 (PIERRE FABRE MEDICAMENT, published 2013)

Tests used:
Assay in all cases: cell-based or functional assay
[1] = target: CXCR4 homodimer BRET pair [CXCR4/Rluc+CXCR4/YFP] on HEK293 cells (Renilla reniformis, UniProt P61073 1-352; P61073 1-352)
[2] = target: T1, human CXCR4 (hCXCR4), expressed on cells (human, UniProt P61073 1-352)
[3] = target: T1, human CXCR4 (hCXCR4), expressed on cells; remark: listed apart in the source
[4] = target: T1, human CXCR4 (hCXCR4), expressed on cells; remark: listed apart in the source
[5] = target: CCR5 on GHOST cells expressing CD4 and CCR5 (UniProt P51681 1-352, limits assumed)
Chain of CCR5 on GHOST cells expressing CD4 and CCR5 (P51681 whole entry): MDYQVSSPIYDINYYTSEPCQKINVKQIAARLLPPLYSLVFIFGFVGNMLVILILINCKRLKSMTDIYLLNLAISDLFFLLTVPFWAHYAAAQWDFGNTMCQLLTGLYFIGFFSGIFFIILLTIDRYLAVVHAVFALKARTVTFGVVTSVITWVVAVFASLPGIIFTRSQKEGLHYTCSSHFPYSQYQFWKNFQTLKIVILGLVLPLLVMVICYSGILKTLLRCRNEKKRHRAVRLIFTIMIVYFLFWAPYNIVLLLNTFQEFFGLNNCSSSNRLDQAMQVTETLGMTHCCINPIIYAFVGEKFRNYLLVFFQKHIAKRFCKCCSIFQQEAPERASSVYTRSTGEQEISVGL

T1 sequence (P61073 whole entry): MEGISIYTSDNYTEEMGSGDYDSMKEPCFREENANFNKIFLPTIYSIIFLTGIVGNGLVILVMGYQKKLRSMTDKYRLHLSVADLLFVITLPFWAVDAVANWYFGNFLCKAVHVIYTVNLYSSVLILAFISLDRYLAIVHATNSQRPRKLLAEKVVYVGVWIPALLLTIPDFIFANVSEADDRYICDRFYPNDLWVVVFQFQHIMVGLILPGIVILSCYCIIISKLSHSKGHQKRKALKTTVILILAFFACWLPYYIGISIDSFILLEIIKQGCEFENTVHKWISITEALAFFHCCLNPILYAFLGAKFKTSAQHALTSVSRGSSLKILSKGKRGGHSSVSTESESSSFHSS
Chain of CXCR4 homodimer BRET pair [CXCR4/Rluc+CXCR4/YFP] on HEK293 cells (P61073 whole entry, chain 1 of 2): as the sequence (P61073 whole entry) above
Chain of CXCR4 homodimer BRET pair [CXCR4/Rluc+CXCR4/YFP] on HEK293 cells (P61073 whole entry, chain 2 of 2): as the sequence (P61073 whole entry) above

Binder | % inhibition of SDF-1-induced BRET increase [1] [%] | IC50 (µg/ml), % inhibition of infected cells, HIV-1 89.6 (dual X4/R5) replication in human PBMC [2] [µg/mL] | IC80 (µg/ml), % inhibition of infected cells, HIV-1 89.6 (dual X4/R5) replication in human PBMC [2] [µg/mL] | IC50 (µg/ml), % inhibition of infected cells, HIV-1 92UG024 replication in human PBMC [3] [µg/mL] | IC50 (µg/ml), % inhibition of infected cells, HIV-1 KON replication in human PBMC [3] [µg/mL] | IC50 (µg/ml), % inhibition of infected cells, HIV-1 MN replication in human PBMC [3] [µg/mL] | IC80 (µg/ml), % inhibition of infected cells, HIV-1 92UG024 replication in human PBMC [3] [µg/mL] | IC80 (µg/ml), % inhibition of infected cells, HIV-1 KON replication in human PBMC [3] [µg/mL] | IC80 (µg/ml), % inhibition of infected cells, HIV-1 MN replication in human PBMC [3] [µg/mL] | IC90 (µg/ml), % inhibition of infected cells, HIV-1 92UG024 replication in human PBMC [3] [µg/mL] | IC90 (µg/ml), % inhibition of infected cells, HIV-1 KON replication in human PBMC [3] [µg/mL] | IC90 (µg/ml), % inhibition of infected cells, HIV-1 MN replication in human PBMC [3] [µg/mL] | IC50 (µg/ml), % inhibition of infected cells, GHOST CXCR4 / X4 HIV-1 LAI virus [4] [µg/mL] | IC50 (µg/ml), % inhibition of infected cells, GHOST CCR5 / R5 HIV-1 BaL virus [5] [µg/mL]
anti-CXCR4 chimeric Mab c515H7 (antibody, V domains shown) VH: EVNLVESGGGLVQPGGSLRLSCATSGFTFTDNYMSWVRQPPGKALEWLGFIRNKANGYTTDYSASVRGRFTISRDNSQSILYLQMNALRAEDSATYYCARDVGSNYFDYWGQGTTLTVSS VL: DIVMSQSPSSLAVSAGEKVTMSCKSSQSLFNSRTRKNYLAWYQQKPGQSPKLLIYWASARDSGVPARFTGSGSETYFTLTISRVQAEDLAVYYCMQSFNLRTFGGGTKLEIK | 96 | < 1.5 | 1.5 | < 1.5 | 1.5 | < 1.5 | 3 | 10 | 1 | 15 | 20 | 15 |  | 
anti-CXCR4 Mab 515H7 (murine monoclonal antibody) (antibody, V domains shown) VH: EVNLVESGGGLVQPGGSLRLSCATSGFTFTDNYMSWVRQPPGKALEWLGFIRNKANGYTTDYSASVRGRFTISRDNSQSILYLQMNALRAEDSATYYCARDVGSNYFDYWGQGTTLTVSS VL: DIVMSQSPSSLAVSAGEKVTMSCKSSQSLFNSRTRKNYLAWYQQKPGQSPKLLIYWASARDSGVPARFTGSGSETYFTLTISRVQAEDLAVYYCMQSFNLRTFGGGTKLEIK | 69 | < 1.5 | 1.5 | 0.5 | 1 | < 1.5 | 3 | 8 | 1.5 | 10 | 15 | 10 | 0.08 | > 75
humanized Mab hz515H7 VH1 D76N VL2 (antibody, V domains shown) VH: EVQLVESGGGLVQPGRSLRLSCTASGFTFTDNYMSWVRQAPGKGLEWVGFIRNKANGYTTEYAASVKGRFTISRDNSKSIAYLQMNSLKTEDTAVYYCARDVGSNYFDYWGQGTLVTVSS VL: DIVMTQSPSSLAVSLGERATMSCKSSQSLFNSRTRKNYLAWYQQKPGQSPKLLIYWASARDSGVPARFTGSGSETYFTLTISRVQAEDLAVYYCMQSFNLRTFGQGTKVEIK | ~88 |  |  |  |  |  |  |  |  |  |  |  |  | 
anti-CXCR4 Mab 301aE5 (murine monoclonal antibody) (antibody, V domains shown) VH: QVQLKESGPGLVAPSQSLSITCTVSGFSLTDYGVYWVRQPPGKGLEWLGMIWGDGTTDYNSALKSRLSISKDNSKSQVFLKMNTLQTDDTARYYCARGRQFGFDYWGQGTTLTVSS VL: DIVMSQSPSSLAVSAGEKVTMRCKSSQSLFNSRTRKNYLAWYQQKPGQSPKLLIFWASIRESGVPDRFTGSGSGTDFTLTISSVQAEDLAVYYCKQSYNLRTFGGGTKLEIK | 69 | 20 | 150 | 50 | 150 | 1 | 150 | > 150 | 150 | > 150 | > 150 | > 150 |  | 
humanized Mab hz515H7 VH1 D76N VL2.1 (antibody, V domains shown) VH: EVQLVESGGGLVQPGRSLRLSCTASGFTFTDNYMSWVRQAPGKGLEWVGFIRNKANGYTTEYAASVKGRFTISRDNSKSIAYLQMNSLKTEDTAVYYCARDVGSNYFDYWGQGTLVTVSS VL: DIVMTQSPDSLAVSLGERATMSCKSSQSLFNSRTRKNYLAWYQQKPGQPPKLLIYWASARDSGVPDRFSGSGSETYFTLTISRVQAEDLAVYYCMQSFNLRTFGQGTKVEIK | ~65 |  |  |  |  |  |  |  |  |  |  |  |  | 
humanized Mab hz515H7 VH1 D76N VL2.2 (antibody, V domains shown) VH: EVQLVESGGGLVQPGRSLRLSCTASGFTFTDNYMSWVRQAPGKGLEWVGFIRNKANGYTTEYAASVKGRFTISRDNSKSIAYLQMNSLKTEDTAVYYCARDVGSNYFDYWGQGTLVTVSS VL: DIVMTQSPDSLAVSLGERATMSCKSSQSLFNSRTRKNYLAWYQQKPGQPPKLLIYWASARDSGVPDRFTGSGSETYFTLTISRVQAEDVAVYYCMQSFNLRTFGQGTKVEIK | ~33 |  |  |  |  |  |  |  |  |  |  |  |  | 
humanized Mab hz515H7 VH1 D76N VL2.3 (antibody, V domains shown) VH: EVQLVESGGGLVQPGRSLRLSCTASGFTFTDNYMSWVRQAPGKGLEWVGFIRNKANGYTTEYAASVKGRFTISRDNSKSIAYLQMNSLKTEDTAVYYCARDVGSNYFDYWGQGTLVTVSS VL: DIVMTQSPDSLAVSLGERATMSCKSSQSLFNSRTRKNYLAWYQQKPGQPPKLLIYWASARDSGVPDRFTGSGSETYFTLTISSLQAEDLAVYYCMQSFNLRTFGQGTKVEIK | ~21 |  |  |  |  |  |  |  |  |  |  |  |  | 
